PMC9818667

T1: angiotensin-converting enzyme (ACE) from rabbit lung (rabbit) (UniProt P12822)
T1 sequence: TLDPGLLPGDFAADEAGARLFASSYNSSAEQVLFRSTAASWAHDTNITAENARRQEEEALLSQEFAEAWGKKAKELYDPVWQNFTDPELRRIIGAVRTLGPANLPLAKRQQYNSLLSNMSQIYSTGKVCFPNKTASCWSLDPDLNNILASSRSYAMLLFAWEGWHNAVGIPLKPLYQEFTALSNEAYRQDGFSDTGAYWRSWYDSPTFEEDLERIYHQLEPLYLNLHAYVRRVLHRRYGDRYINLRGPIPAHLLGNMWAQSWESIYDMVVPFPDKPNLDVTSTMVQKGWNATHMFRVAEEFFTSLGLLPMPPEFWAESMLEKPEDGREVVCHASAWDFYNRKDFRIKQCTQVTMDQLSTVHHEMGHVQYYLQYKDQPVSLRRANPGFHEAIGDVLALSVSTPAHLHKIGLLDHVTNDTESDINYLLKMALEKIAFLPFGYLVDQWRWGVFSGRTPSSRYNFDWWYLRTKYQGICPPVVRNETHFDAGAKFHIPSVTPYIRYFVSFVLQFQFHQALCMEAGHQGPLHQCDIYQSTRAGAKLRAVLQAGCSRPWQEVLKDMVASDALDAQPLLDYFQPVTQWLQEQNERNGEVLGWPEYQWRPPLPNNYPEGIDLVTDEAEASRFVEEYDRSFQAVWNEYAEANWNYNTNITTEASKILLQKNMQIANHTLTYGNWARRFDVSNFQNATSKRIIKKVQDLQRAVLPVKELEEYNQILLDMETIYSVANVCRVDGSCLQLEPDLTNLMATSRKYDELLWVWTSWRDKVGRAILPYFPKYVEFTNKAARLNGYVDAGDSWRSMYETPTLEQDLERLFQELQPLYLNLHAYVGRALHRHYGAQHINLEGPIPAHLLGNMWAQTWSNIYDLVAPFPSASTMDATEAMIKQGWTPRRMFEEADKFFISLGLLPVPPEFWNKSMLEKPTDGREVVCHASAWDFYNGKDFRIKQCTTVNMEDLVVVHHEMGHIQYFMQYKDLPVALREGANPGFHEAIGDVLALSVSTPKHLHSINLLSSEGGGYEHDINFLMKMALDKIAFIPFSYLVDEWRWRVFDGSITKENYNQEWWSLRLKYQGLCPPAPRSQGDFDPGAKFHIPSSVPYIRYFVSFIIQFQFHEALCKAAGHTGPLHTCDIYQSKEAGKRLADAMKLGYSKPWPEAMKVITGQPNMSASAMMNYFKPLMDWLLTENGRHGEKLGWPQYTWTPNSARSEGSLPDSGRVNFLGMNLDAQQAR


These binders were tested against T1, angiotensin-converting enzyme (ACE) from rabbit lung (rabbit).

Going from VALSSLRP to NPDDITNEEYGEFYK, the ACE inhibitory activity (substrate HHL, hippuric acid by HPLC), peptide at 1 mg/mL falls from 91.7% to 2.81%.

Going from TTPSYVAFTDTER to QFQPGFSSS, the ACE inhibitory activity (substrate HHL, hippuric acid by HPLC), peptide at 1 mg/mL rises from 26.7% to 40.9%.

Binder STGEAFVQFASQEIAEK has an ACE inhibitory activity (substrate HHL, hippuric acid by HPLC), peptide at 1 mg/mL of 1.57%.

For VALSSLRP, the IC50 of ACE inhibitory activity (substrate HHL, hippuric acid by HPLC) was 39 µg/mL.
